Results as given in US20240358834A1 (University of Pennsylvania, published 2024).

Target: T1, human CD19 protein with a biotinylated AviTag (Acrobiosystems) (human, UniProt P15391 20-291, biotinylated AviTag)
T1 construct: Captured on streptavidin-coated microplate wells; also called biotinylated-AviTag-CD19; hCD19; not shown: AviTag
T1 sequence (looked up): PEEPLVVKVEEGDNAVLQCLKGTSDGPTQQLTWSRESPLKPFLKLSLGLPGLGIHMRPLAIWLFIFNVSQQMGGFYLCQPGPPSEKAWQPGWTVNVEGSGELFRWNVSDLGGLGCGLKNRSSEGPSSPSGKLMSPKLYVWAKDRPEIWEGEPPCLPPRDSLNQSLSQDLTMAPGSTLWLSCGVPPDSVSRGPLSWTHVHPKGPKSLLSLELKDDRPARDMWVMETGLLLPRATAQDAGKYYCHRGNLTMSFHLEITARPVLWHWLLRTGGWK
Experiment: phage ELISA, biotinylated AviTag CD19 on streptavidin wells; signal ratio to FMC63 standard
From the text: To identify unique human CD19-binding monoclonal scFv from the panned libraries, individual phage antibody clones were expanded, assessed for binding to CD19 by ELISA, and subjected to nucleotide sequencing to identify those clones that were unique. A total of 84 scFvs were randomly selected from the panned libraries (70 from P3 and 14 from P4).

Row | Binder | ELISA hCD19 (ratio FMC63)
1 | scFv 9 (scFv, Canine scFv (VL-linker-VH); also called scFv_09; P3-41) scFv: QPVLTQPPSVSAALGQRVTLSCTGSKTNIGSGYDVQWYQQFPGKSPKTIIYGNSNRFSGVPARFSGSKSGSIATLTITGIQAEDEADYYCQSFDDNVDGYVFGSGTQLTILGGGSSRSSSSGGGGSGGGGEVQLVESGGDLVKPGGSLRLSCVASGFTFSSDSIHWVRQAPGKGLQWVAYINSGGSTTYYADAVKGRFTISRDNARNTVYLKMNSLRAEDTAVYYCAKDSGFGSWYLESWGQGTLVTVSPASTTAPSVTSGQAGQHHHHHHGAYPYDVPDYAS | 0.71 ratio to FMC63
2 | scFv 43 (scFv, Canine scFv (VL-linker-VH); also called P3-02; P3-19) scFv: DIVMTQNPLSLAVTPGELATISCRASQSLLHSDGKSYLNWYLQKPGQTPRPLIYEASRRFSGVSDRFNGSGSGTDFTLKISRVEAEDVGVYYCQQGLHFPPTFGAGTKVELKGGSSRSSSSGGGGSGGGGEVQLVESGGDLVKPGGSLRLSCAASGFTFTDYDMSWVRQAPGKGLQWVAAISYDGSSTYYTDAVKGRFTISRDNARNTLYLQMSSLRAEDTAMYYCVVSNMNLWGHGTSVFVSSASTTAPSVTSGQAGQHHHHHHGAYPYDVPDYAS | 0.57 ratio to FMC63
3 | scFv 42 (scFv, Canine scFv (VL-linker-VH); also called P3-13) scFv: QSVLTQPTSVSGSLGQRVTISCSGSTNDIGIIGAAWYQQLPGKAPKLLLYSNKNRPSGVPDRFSGSNSGISATLTITGLQAEDEADYYCQSVDPALHTYVFGSGTQLTILGGGSSRSSSSGGGGSGGGGEVQLVEIGGDLVKPEGSLRLSCVVSGFTFSGYDMNWVRQAPGKGLQWVAYISSDGRRTVYTDAVKGRFTISRDNAKNTLYLQMNSLKSEDTAVYYCVKGGWLDFWGQGTLVTVSSESPSPPNLTSGQAGQHHHHHHGAYPYDVPDYAS | 0.14 ratio to FMC63
4 | scFv 8 (scFv, Canine scFv (VL-linker-VH); also called scFv_08; P3-16) scFv: QSVLTQPASVSGSLGQKVTISCTGSRSNIGANYVGWYQQVPGIGPRTVIFGYNYRPSGVPDRFSSSKSGNSATLTISGLQAEDEAEYYCSSWDDSLRGTVFGSGTQLTVLGGGSSRSSSSGDGGSGGGGEVQLVESGGDLVKPGESLRLSCVASGFTFSSYGMSWVRQSPGKGLQWVADISYGGGTYYADAVKGRFTISRDNARNTVYLQMNSLRAEDTAVYYCASQWGDWGHFEYWGQGTLVTVSSASTTAPSVTSGQAGQHHHHHHGAYPYDVPDYAS | 0.41 ratio to FMC63
5 | scFv 7 (scFv, Canine scFv (VL-linker-VH); also called scFv_07; P3-47) scFv: SYELTQPPSMSAALGQRVTISCTGSNTNIGSGYDVQWYQQVPGKSPTPLIYGNTNRPSGVPVRFSGSKSGNTATLTITGIQAEDEADYYCQSYDDNFDGHHVFGSGTQLTVLGGGSSRSSSSGGGGSGGGGEVQLVESGGDLVKPAGSLRLSCVASGFTFSNYGMNWVRQAPGKGLQWVAGINSGGSTTTYADVVKGRFTISRDNAKNTLYLQMNSLGAEDTAVYYCARVDYSSSWLVDYWGQGTLVTVSSASTTAPSVTSGQAGQHHHHHHGAYPYDVPDYAS | 0.83 ratio to FMC63
6 | scFv 5 (scFv, Canine scFv (VL-linker-VH); also called scFv_05; P3-14) scFv: QPVLTQPPSVSGSLGQRVTISCSGSTNTIGVVGANWYQQLPGKSPKLLVYSDGVRPSGVPDRFSGSRSANSDTLTITGLQAEDEADYYCQSFDSTHNAIVFGGGTHLTVLGGGSSRSSSSGGGGSGGGGEVQLVETGGDLVKPAGSLRLSCAASGFPFSGYSMTWVRQAPEKGLQLVAGINSDGSHTYYTDDVKGRFTISRDNTKYILYLQMNSLRAEDTAMYYCGSHSWGNFHYWGQGTLVTVSSESPSPPNLTSGQAGQHHHHHHGAYPYDVPDYAS | 0.48 ratio to FMC63
